The values below come from patent publication US20260232732A1 (FUNDACI INSTITUT DE RECERCA CONTRA LA LEUC MIA JOSEP …, published 2026).

Assay [1] deals with T1, biotin-peptide TSSMEDYVNF (human).
T1 peptide: Biotin-TSSMEDYVNF
The assay can be described thus: ELISA biotin-peptide; scFv 0.15625 ug/mL; repII. The method, then: (§1) The peptides were synthesized naked or with a N-terminal Biotin modification with a purity of >98%. All four scFvs were verified by ELISA that can be detected with anti-His antibodies. ELISA was performed for scFv-peptide binding validation. Briefly, naked peptides were coated (50 μg/mL) in 0.58M carbonate-bicarbonate buffer pH9.5, 100 μL/well, 4° C. O/N. Then after blocking (3% BSA-PBS, 300 μL/well 37° C. 1.5 h) and washing (PBS+Tween-20 0.05% v/v (0.05% PBST), wells were incubated with each purified scFv antibody at concentration of 1 μg/mL in PBS at 37° C. 1 h. After washing (0.05% PBST), wells were incubated with secondary antibodies (goat anti-His IgG-HRP) in PBS, 37° C., 30 min. After washing, and incubation with TMB substrate, reactions were stopped with 2M HCl and reading was quantified at OD450.
(§2) ELISA with biotin-conjugated peptides (5 μg/mL) was performed very similar to described above with minor modifications.
(§3) A full curve ELISA was performed for each positive scFv/biotin-peptide pair in order to confirm previous results. Tables 15-17 show ELISA results of the dose-dependent full curve for each positive peptide with scFv “CCR9_HUM”, “Comp-2” and “Comp-3”, respectively.

Assay [2] deals with T2, biotin-peptide MEDYVNFNFT (human).
T2 peptide: Biotin-MEDYVNFNFT
The assay can be described thus: ELISA biotin-peptide; scFv 0.15625 ug/mL; repII. As to the method:
as §1, §2, §3
(In general: An ELISA detects its analyte on a solid surface through an enzyme-linked reagent.)

For assay [3], the target named is T3, biotin-peptide SSMEDYVNFN (human).
T3 peptide: Biotin-SSMEDYVNFN
The assay can be described thus: ELISA biotin-peptide; scFv 0.15625 ug/mL; repII. As to the method:
as §1, §2, §3

The target of assay [4] is T4, biotin-peptide SMEDYVNFNF (human).
T4 peptide: Biotin-SMEDYVNFNF
As to the kind of experiment: ELISA biotin-peptide; scFv 0.15625 ug/mL; repII. The method, then:
as §1, §2, §3

The target in assay [5] is T5, Peptide 1-BSA (MADDYGSEST-C conjugated to BSA) (human).
T5 peptide: MADDYGSESTC(BSA)
As to the kind of experiment: ELISA; Ab 0.5 ug/mL; repI. The method, then:
(§4) In brief, plates with each non-conjugated peptide (50 μg/mL) or BSA-conjugated peptide (5 μg/mL) were coated in 0.58M carbonate-bicarbonate buffer pH9.5, 100 μL/well, at 4° C. […] After washing, wells were incubated with the 3, 3′,5,5′-Tetramethylbenzidine (TMB) HRP substrate and reactions were stopped with 2M HCl and OD450 was recorded.

Assay [6] has as its target T6, Peptide 1, non-conjugated (MADDYGSEST-C) (human).
T6 construct: With the extra C-terminal Cys
T6 peptide: MADDYGSESTC
As to the kind of experiment: ELISA; Ab 0.5 ug/mL; repI. As to the method: as §4

Assay [7] has as its target T5, Peptide 1-BSA (MADDYGSEST-C conjugated …). As to the kind of experiment: ELISA; Ab 0.03125 ug/mL; repII. As to the method:
as §4

For assay [8], the target named is T7, Peptide 4-BSA (SMEDYVNFNF-C conjugated to BSA) (human).
T7 peptide: SMEDYVNFNFC(BSA)
The assay can be described thus: ELISA; Ab 0.03125 ug/mL; repII. The method, then:
as §4

Assay [9] addresses T8, Peptide 2-BSA (GSESTSSMED-C conjugated to BSA) (human).
T8 peptide: GSESTSSMEDC(BSA)
As to the kind of experiment: ELISA; Ab 0.03125 ug/mL; repII. As to the method: as §4

Assay [10] deals with T9, antigen peptide-BSA (immunisation peptide #1 MADDYGSESTSSMEDYVNFNF-C conjugated to BSA) (human, extra C-terminal Cys conjugated to BSA).
T9 construct: also called Positive control antigen peptide-BSA; MADDY peptide
T9 peptide: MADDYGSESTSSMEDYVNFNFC
The assay can be described thus: ELISA; Ab 0.03125 ug/mL; repII. The method, then: as §4

Assay [11] has as its target T10, BSA (negative control coating) (bovine, UniProt P02769 25-607).
T10 construct: also called Negative control BSA
The assay can be described thus: ELISA; Ab 0.03125 ug/mL; repII. As to the method:
as §4

Assay [12] deals with T11, Peptide 3, non-conjugated (SSMEDYVNFN-C) (human).
T11 construct: With the extra C-terminal Cys
T11 peptide: SSMEDYVNFNC
As to the kind of experiment: ELISA; Ab 0.03125 ug/mL; repII. As to the method:
as §4

In assay [13] the target is T12, Peptide 4, non-conjugated (SMEDYVNFNF-C) (human).
T12 construct: With the extra C-terminal Cys
T12 peptide: SMEDYVNFNFC
The assay can be described thus: ELISA; Ab 0.03125 ug/mL; repII. As to the method: as §4

Assay [14] concerns the target T13, Peptide 2, non-conjugated (GSESTSSMED-C) (human).
T13 construct: With the extra C-terminal Cys
T13 peptide: GSESTSSMEDC
As to the kind of experiment: ELISA; Ab 0.03125 ug/mL; repII. As to the method: as §4

For assay [15], the target named is T5, Peptide 1-BSA (MADDYGSEST-C conjugated …). As to the kind of experiment: ELISA; Ab 0.01563 ug/mL; repI. The method, then:
as §4

Assay [16] deals with T7, Peptide 4-BSA (SMEDYVNFNF-C conjugated …). The assay can be described thus: ELISA; Ab 0.01563 ug/mL; repI. The method, then:
as §4

The target in assay [17] is T14, Peptide 3-BSA (SSMEDYVNFN-C conjugated to BSA) (human).
T14 peptide: SSMEDYVNFNC(BSA)
The assay can be described thus: ELISA; Ab 0.01563 ug/mL; repI. As to the method:
as §4

In assay [18] the target is T6, Peptide 1, non-conjugated (MADDYGSEST-C). As to the kind of experiment: ELISA; Ab 0.01563 ug/mL; repI. As to the method:
as §4

Assay [19] addresses T8, Peptide 2-BSA (GSESTSSMED-C conjugated …). As to the kind of experiment: ELISA; Ab 0.01563 ug/mL; repI. The method, then:
as §4

For assay [20], the target named is T9, antigen peptide-BSA (immunisation …). As to the kind of experiment: ELISA; Ab 0.01563 ug/mL; repI. As to the method:
as §4

Assay [21] deals with T10, BSA (negative control coating). As to the kind of experiment: ELISA; Ab 0.01563 ug/mL; repI. As to the method:
as §4

Assay [22] addresses T11, Peptide 3, non-conjugated (SSMEDYVNFN-C). The assay can be described thus: ELISA; Ab 0.01563 ug/mL; repI. As to the method: as §4
Assay [23] addresses T12, Peptide 4, non-conjugated (SMEDYVNFNF-C). As to the kind of experiment: ELISA; Ab 0.01563 ug/mL; repI. As to the method: as §4
The target of assay [24] is T13, Peptide 2, non-conjugated (GSESTSSMED-C). The assay can be described thus: ELISA; Ab 0.01563 ug/mL; repI. As to the method:
as §4

Where no end group is shown, it is not given here. The star is where a group is joined. Biotin = O=C1N[C@H]2[C@H](CS[C@H]2CCCCC(=O)*)N1

T10 sequence (P02769 25-607 limits assumed): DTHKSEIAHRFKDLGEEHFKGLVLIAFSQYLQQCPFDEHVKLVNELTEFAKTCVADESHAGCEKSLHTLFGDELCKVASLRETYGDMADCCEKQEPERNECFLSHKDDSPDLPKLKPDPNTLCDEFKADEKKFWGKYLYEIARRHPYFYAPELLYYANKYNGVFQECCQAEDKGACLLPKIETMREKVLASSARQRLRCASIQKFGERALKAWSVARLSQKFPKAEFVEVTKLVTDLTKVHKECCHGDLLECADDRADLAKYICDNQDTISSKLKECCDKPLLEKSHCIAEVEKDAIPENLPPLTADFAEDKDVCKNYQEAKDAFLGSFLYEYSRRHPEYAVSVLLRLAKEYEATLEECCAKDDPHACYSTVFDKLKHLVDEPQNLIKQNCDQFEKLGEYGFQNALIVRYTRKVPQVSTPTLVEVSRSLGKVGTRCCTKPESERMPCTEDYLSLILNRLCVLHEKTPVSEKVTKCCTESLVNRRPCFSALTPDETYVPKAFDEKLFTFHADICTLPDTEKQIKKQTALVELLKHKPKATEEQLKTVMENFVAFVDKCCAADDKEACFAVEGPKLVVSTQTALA

B1: CCR9_HUM2 scFv (humanized anti-CCR9 scFv, SEQ ID NO: 17 with C-terminal 6xHis tag) (scFv)
scFv: QVQLVQSGAEVKKPGASVKVSCTASGYSFTDYIIYWVKQAHGQSLEWMGYIDPNNYNTRYSQKFQGKVTITVDKSSTSAYMELNSLTSDDTAVYYCARDVYWGQGTTVTVSSGGGGSGGGGSGGGGSGGGGSDVVMTQTPLSLSVTPGQPASISCRSSQSLVHSNGKTYLQWYLQKPGQSPKLLIYKVSNRFSGVPDRFSGSGSGTDFTLKISRVEAEDVGVYFCAQSTHVWTFGGGTKVEIKRAHHHHHH
Consider B1, for which the OD450 in assay [1] worked out at 0.18 OD; in [2] it was 1.37 OD; in assay [3], 1.59 OD; in assay [4], 1.6 OD.

B2: anti-CCR9 antibody clone 115 (murine, from hybridoma #115) (antibody, V domains shown)
VH: QVQLKQSGPELVKPGTSVRVSCTASGYSFTDYIIYWVKQSHGRSLEWIGYIDPNNYNTRYSQKFKGKATLTVDKSSTSAFMHLNSLTSDDSAVYYCARDVYWGQGTTLTVSS
VL: DVVMTQTPLSLTVSLGDQASISCRSSQSLVHSNGKTYLQWYLQKPGQSPKLLIYKVSNRFSGVPDRFSGSGSGTDFTLKISRVEAEDLGVYFCAQSTHVWTFGGGTKLEIKR
notes: Mouse IgG1
With B2, the OD450 came out at 0.03 OD in assay [5]; 0.01 OD in [6]; 0.01 OD in assay [7]; 1.53 OD in assay [8]; 0.01 OD in [9]; 1.48 OD in [10]. For the same molecule, the OD450 worked out at 0.01 OD in assay [11]; 1.62 OD in assay [12]; 0.76 OD in [13]; 0.01 OD in [14]; 0.01 OD in [15]; 0.91 OD in assay [16]. Further, the OD450 in assay [17] was found to be 1.33 OD; in assay [18], 0.01 OD; in assay [19] it was 0.01 OD; in assay [20], 1.1 OD; in assay [21] it was 0.01 OD; in [22], 1.47 OD. Also, the values for the OD450 in assay [23] and in assay [24] were 0.38 OD and 0.01 OD, respectively.
